Laboratory results reported in paper PMC13635227 (Nature Communications, 2026).
The star is where a group is joined. Biotin = O=C1N[C@H]2[C@H](CS[C@H]2CCCCC(=O)*)N1; AEEA = NCCOCCOCC(=O)O

What was measured:
Assay in all cases: BLI
[1] = biological target: T1, Biotin-PEG-EAEEPSLLKKLLLAPANTQ-NH2 (LXXLL motif peptide, amino acids 135-153 of PPAR coactivator 1α, PGC-1α) (SMILES …)
T1 peptide: {Biotin-AEEA}-EAEEPSLLKKLLLAPANTQ-NH2

[2] = biological target: T1, Biotin-PEG-EAEEPSLLKKLLLAPANTQ-NH2 …
[3] = biological target: T1, Biotin-PEG-EAEEPSLLKKLLLAPANTQ-NH2 …

B1: Full-length mouse PPAR-α (peroxisome proliferator-activated receptor α), tag-free (natural protein, UniProt P23204 1-468, looked up)
chain: MVDTESPICPLSPLEADDLESPLSEEFLQEMGNIQEISQSIGEESSGSFGFADYQYLGSCPGSEGSVITDTLSPASSPSSVSCPVIPASTDESPGSALNIECRICGDKASGYHYGVHACEGCKGFFRRTIRLKLVYDKCDRSCKIQKKNRNKCQYCRFHKCLSVGMSHNAIRFGRMPRSEKAKLKAEILTCEHDLKDSETADLKSLGKRIHEAYLKNFNMNKVKARVILAGKTSNNPPFVIHDMETLCMAEKTLVAKMVANGVEDKEAEVRFFHCCQCMSVETVTELTEFAKAIPGFANLDLNDQVTLLKYGVYEAIFTMLSSLMNKDGMLIAYGNGFITREFLKNLRKPFCDIMEPKFDFAMKFNALELDDSDISLFVAAIICCGDRPGLLNIGYIEKLQEGIVHVLKLHLQSNHPDDTFLFPKLLQKMVDLRQLVTEHAQLVQVIKKTESDAALHPLLQEIYRDMY
In the case of B1, the “EC50 of palmitic acid (small-molecule ligand of PPAR-α) in promoting the binding” value [1] is reported as 190 µM, the “EC50 of ciprofibrate (small-molecule ligand of PPAR-α) in promoting the binding” value [2] is reported as 5.4 µM and the “EC50 of TFA (small-molecule ligand of PPAR-α) in promoting the binding” value [3] is reported as 4.9 mM.
